Reference: publication PMC7504384, “Insight into the Folding and Dimerization Mechanisms of the N-Terminal Domain from Human TDP-43” (International Journal of Molecular Sciences, 2020)

What was measured:
[1] = molecular target: the molecule itself; assay: SEC; analytical gel filtration, Superdex 200 Increase 10/300 GL, 4 °C, 5 mM phosphate buffer, 50 mM NaCl, pH 7.4, without DTT; 100 µL of 0.5 mg/mL (58.7 µM) NTD loaded; masses from a calibration curve; also run with 150 mM NaCl without DTT
[2] = molecular target: the molecule itself; assay: dynamic light scattering; 0.5 mg/mL (58.7 µM) NTD in 5 mM sodium phosphate buffer, 50 mM NaCl, 1 mM DTT, pH 7.4, 25 °C, no urea; hydrodynamic diameter compared with values calculated for monomer and dimer

B1: N-terminal domain of human TDP-43 (NTD_(1–77)) (domain or fragment, UniProt Q13148 1-77, looked up)
chain: MSEYIRVTEDENDEPIEIPSEDDGTVLLSTVTAQFPGACGLRYRNPVSQCMRGVRLVEGILHAPDAGWGNLVYVVNY
notes: devoid of any tag; calculated mass 8.53 kDa; Cloning, expression and purification are told only in the Supplementary Materials; also called NTD TDP-43; wild-type protein; source: purified as described in the Supplementary Materials (>95% pure)
stoichiometry N [1]: 4 | stoichiometry N [2]: 2
